From publication PMC8096214
Where two headings read alike, the source gives them in different places.

T1: MgR D284A (RNase R, catalytically inactive) (Mycoplasma genitalium, UniProt P47350 1-725, D284A)
T1 sequence: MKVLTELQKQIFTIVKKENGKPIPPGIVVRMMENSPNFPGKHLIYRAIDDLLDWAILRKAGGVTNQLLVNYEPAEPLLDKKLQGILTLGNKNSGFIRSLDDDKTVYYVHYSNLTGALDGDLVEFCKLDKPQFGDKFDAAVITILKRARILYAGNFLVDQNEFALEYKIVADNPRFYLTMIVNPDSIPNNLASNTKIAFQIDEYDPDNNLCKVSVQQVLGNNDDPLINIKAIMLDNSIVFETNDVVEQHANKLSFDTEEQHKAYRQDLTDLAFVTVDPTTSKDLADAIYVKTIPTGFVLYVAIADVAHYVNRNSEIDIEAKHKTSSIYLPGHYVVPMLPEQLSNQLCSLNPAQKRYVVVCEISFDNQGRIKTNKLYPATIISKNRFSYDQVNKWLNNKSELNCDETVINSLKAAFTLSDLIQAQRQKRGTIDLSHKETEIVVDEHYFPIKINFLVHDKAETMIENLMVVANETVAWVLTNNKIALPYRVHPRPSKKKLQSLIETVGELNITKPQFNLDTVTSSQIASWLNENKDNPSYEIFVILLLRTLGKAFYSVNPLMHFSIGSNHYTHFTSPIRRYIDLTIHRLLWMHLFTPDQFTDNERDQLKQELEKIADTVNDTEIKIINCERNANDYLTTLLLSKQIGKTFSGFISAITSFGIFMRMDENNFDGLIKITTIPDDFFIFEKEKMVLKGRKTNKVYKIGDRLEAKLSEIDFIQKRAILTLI

B1: 6-bp dsRNA with 7-nt 3' overhang (dsRNA)
RNA 1: CCGUGUAAAAAAA
RNA 2: ACACGG

What was measured:
[1] = target: T1, MgR D284A (RNase R, catalytically …); assay: fluorescence polarization
[2] = target: T1, MgR D284A (RNase R, catalytically …); assay: crystal structure
[3] = target: T1, MgR D284A (RNase R, catalytically …); assay: crystal structure; remark: listed apart in the source

Binder	Kd [1] [nM]	other results
CAAACAAAACCGUGUAAAAACAAA (ssRNA) [24-nt ssRNA, unmethylated]	6.62 ± 0.7	–
AAAA (ssRNA, 2'-O-methyl at A3 ('me' read as suffix)) [4-nt 2'-O-methylated oligo rA (AAAmeA)]	–	binding result [2]: binds
B1	–	binding result [3]: binds
CAAACAAAACCGUGUAAAAACAAA (ssRNA, 2'-O-methyl at G12, G14, A23 ('me' read as suffix, as in the rA15 30-mer)) [24-nt ssRNA, 2'-O-methylated]	6.63 ± 0.69	–
